{"source": "patent US20070178448A1", "about": "(Scripps Research, published 2007)", "biological_target": "T1, streptavidin (UniProt P22629 37-163, limits assumed)", "T1 construct": "also called streptavidin coated microtiter plates (Pierce); strepavidin", "T1 sequence (P22629 37-163 limits assumed)": "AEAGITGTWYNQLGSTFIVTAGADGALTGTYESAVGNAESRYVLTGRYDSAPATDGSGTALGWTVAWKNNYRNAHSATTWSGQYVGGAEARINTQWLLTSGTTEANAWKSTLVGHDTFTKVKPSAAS", "assay": "phage capture on streptavidin coated wells, elution with 10 µM biotin, titer of input and output phage", "procedure": "In a model phage selection experiment, wild-type phage and phage carrying the mutant SBP with p-azido-L-phenylalanine were exposed to streptavidin coated wells, followed by recovery of the bound phage. Titer of the recovered enriched phage following elution was used as a measure of the binding specificity of the page for the streptavidin.\nSpecifically, two wells from a streptavidin coated microtiter plate (Pierce) were blocked with 300 μL of 4% BSA in 1×PBS at 4° C. overnight. After washing, separate streptavidin coated wells were incubated with similar numbers of phage (each in 100 μL) of either M13KE-SBP prepared in TTS/RS 3 or M13KE wild type phage at room temperature for 2 hours and washed 10 times with 200 μL PBST. The bound phage was eluted from the plate solid support with 10 μM biotin 1×PBS, pH 7.4. The input and output phage were titered (see, FIG. 9).", "note": "Non-standard residues stand in square brackets, D forms with d. No end group written: not given here. Phe(4-Ac) = CC(=O)c1ccc(C[C@H](N)C(=O)O)cc1"}
{"binder": "AG[Phe(4-Ac)]TLLAHPQ (not fully specified (C-terminus), also called M13KE-SBP phage prepared in TTS/p-acetylphenylalanine 3; M13KE-SBP prepared in TTS/RS 3; not shown: pIII minor coat protein of M13 filamentous phage (vector M13KE); peptide fused at its N-terminus after the signal peptid)", "values": [{"measurement": "recovery rate, fold over that of M13KE wild-type phage", "value": 9000, "unit": "fold"}]}
